Measurements from US20240059797A1 (GRITSTONE BIO, published 2024).

Experiments:
[1] = biological target: HLA-A*02:01_… (HLA-PEPTIDE target G8), recombinant complex (human, enzymatically biotinylated (BirA) for screening and functional assays); assay: scFv PPE ELISA
[2] = biological target: HLA-A*01:01_… (HLA-PEPTIDE target G10), recombinant biotinylated complex (human, enzymatically biotinylated (BirA)); assay: scFv PPE ELISA

| Binder | fold selective binding to target pHLA over minipool of negative control pHLAs [1] | fold selective binding to target pHLA over minipool of negative control pHLAs [2] |
| --- | --- | --- |
| G8(2C11) scFv (scFv, V domains shown) VH: QVQLVQSGAEVKKPGASVKVSCKASGYTFTSYAMNWVRQAPGQGLEWMGWINPNSGGTNYAQKFQGRVTMTRDTSTSTVYMELSSLRSEDTAVYYCARDPFWSGHYYYYGMDVWGQGTTVTVSS VL: not shown | ≥ 3 fold | – |
| G8(1H08) scFv (scFv, V domains shown, also called G8-P1H08) VH: QVQLVQSGAEVKKPGASVKVSCKASGYTFGNYFMHWVRQAPGQGLEWMGMVNPSGGSETFAQKFQGRVTMTRDTSTSTVYMELSSLRSEDTAVYYCAASTWIQPFDYWGQGTLVTVSS VL: DIQMTQSPSSLSASVGDRVTITCRASQGINSYLAWYQQKPGKAPKLLIYDASNLETGVPSRFSGSGSGTDFTLTISSLQPEDFATYYCQQHNSYPPTFGQGTKLEIK | ≥ 3 fold | – |
| G8(2E06) scFv (scFv, V domains shown) VH: QVQLVQSGAEVKKPGASVKVSCKASGYTLTTYYMHWVRQAPGQGLEWMGWINPNSGGTNYAQKFQGRVTMTRDTSTSTVYMELSSLRSEDTAVYYCARAVYYDFWSGPFDYWGQGTLVTVSS VL: DIQMTQSPSSLSASVGDRVTITCRASQGISNSLAWYQQKPGKAPKLLIYAASSLQSGVPSRFSGSGSGTDFTLTISSLQPEDFATYYCQQANSFPWTFGQGTKLEIK | ≥ 3 fold | – |
| G8(1C01) scFv (scFv, V domains shown) VH: QVQLVQSGAEVKKPGASVKVSCKASGGTFSSHAISWVRQAPGQGLEWMGVIIPSGGTSYTQKFQGRVTMTRDTSTSTVYMELSSLRSEDTAVYYCARGDYYDSSGYYFPVYFDYWGQGTLVTVSS VL: DIQMTQSPSSLSASVGDRVTITCRASQNIYTYLNWYQQKPGKAPKLLIYDASNLETGVPSRFSGSGSGTDFTLTISSLQPEDFATYYCQQANGFPLTFGGGTKVEIK | ≥ 3 fold | – |
| G8(2E04) scFv (scFv, V domains shown) VH: QVQLVQSGAEVKKPGSSVKVSCKASGGTFSSYGVSWVRQAPGQGLEWMGWISPYSGNTDYAQKFQGRVTITADESTSTAYMELSSLRSEDTAVYYCARGLYYMDVWGKGTTVTVSS VL: DIQMTQSPSSLSASVGDRVTITCRASQSISSWLAWYQQKPGKAPKLLIYDASNLETGVPSRFSGSGSGTDFTLTISSLQPEDFATYYCQQSYSTPLTFGGGTKLEIK | ≥ 3 fold | – |
| G10(1E12) scFv (scFv, V domains shown) VH: QVQLVQSGAEVKKPGASVKVSCKASGYIFTGYYMHWVRQAPGQGLEWMGMIGPSDGSTSYAQKFQGRVTMTRDTSTSTVYMELSSLRSEDTAVYYCAREDDSMDVWGKGTTVTVSS VL: not shown | – | ≥ 3 fold |
| G8(1C11) scFv (scFv, V domains shown) VH: QVQLVQSGAEVKKPGASVKVSCKASGGTLSSYPINWVRQAPGQGLEWMGWISTYSGHADYAQKLQGRVTMTRDTSTSTVYMELSSLRSEDTAVYYCARSYDYGDYLNFDYWGQGTLVTVSS VL: DIQMTQSPSSLSASVGDRVTITCQASQDISNYLNWYQQKPGKAPKLLIYAASSLQSGVPSRFSGSGSGTDFTLTISSLQPEDFATYYCQQSYSIPPTFGGGTKVDIK | ≥ 3 fold | – |
| G8(4F05) scFv (scFv, V domains shown) VH: QVQLVQSGAEVKKPGASVKVSCKASGYTFSNMYLHWVRQAPGQGLEWMGWINPNTGDTNYAQTFQGRVTMTRDTSTSTVYMELSSLRSEDTAVYYCARGLYGDYFLYYGMDVWGQGTKVTVSS VL: DIQMTQSPSSLSASVGDRVTITCRASQGISNYLAWYQQKPGKAPKLLIYAASTLQSGVPSRFSGSGSGTDFTLTISSLQPEDFATYYCQQSYSTPLTFGGGTKVEIK | ≥ 3 fold | – |
| G8(1D02) scFv (scFv, V domains shown) VH: EVQLLESGGGLVQPGGSLRLSCAASGFTFSSYWMSWVRQAPGKGLEWVSSISGRGDNTYYADSVKGRFTISRDNSKNTLYLQMNSLRAEDTAVYYCARASGSGYYYYYGMDVWGQGTTVTVSS VL: DIQMTQSPSSLSASVGDRVTITCQASQDISNYLNWYQQKPGKAPKLLIYAASSLQSGVPSRFSGSGSGTDFTLTISSLQPEDFATYYCQQSYSAPYTFGGGTKVEIK | ≥ 3 fold | – |
| G8(2C10) scFv (scFv, V domains shown) VH: QVQLVQSGAEVKKPGASVKVSCKASGYTFTSYYMHWVRQAPGQGLEWMGWINPYSGGTNYAQKFQGRVTMTRDTSTSTVYMELSSLRSEDTAVYYCAKGGIYYGSGSYPSWGQGTLVTVSS VL: DIQMTQSPSSLSASVGDRVTITCRASQDVSTWLAWYQQKPGKAPKLLIYAASSLQSGVPSRFSGSGSGTDFTLTISSLQPEDFATYYCQQSHSTPQTFGQGTKVEIK | ≥ 3 fold | – |
| G8(2B05) scFv (scFv, V domains shown) VH: EVQLLESGGGLVQPGGSLRLSCAASGFDFSIYSMNWVRQAPGKGLEWVSAISGSGGSTYYADSVKGRFTISRDNSKNTLYLQMNSLRAEDTAVYYCASNGNYYGSGSYYNYWGQGTLVTVSS VL: DIQMTQSPSSLSASVGDRVTITCRASQSISRWLAWYQQKPGKAPKLLIYAASSLQSGVPSRFSGSGSGTDFTLTISSLQPEDFATYYCQQYSTYPITIGQGTKVEIK | ≥ 3 fold | – |

Results, then the binder that gave them:

| fold selective binding to target pHLA over minipool of negative control pHLAs [1] | fold selective binding to target pHLA over minipool of negative control pHLAs [2] | Binder |
| --- | --- | --- |
| ≥ 3 fold | – | G8(5G08) scFv (scFv, V domains shown) VH: QVQLVQSGAEVKKPGASVKVSCKASGYTFTSNYMHWVRQAPGQGLEWMGWMNPNSGNTGYAQKFQGRVTMTRDTSTSTVYMELSSLRSEDTAVYYCARGLYGDYFLYYGMDVWGQGTTVTVSS VL: not shown |
| – | ≥ 3 fold | G10(2G11) scFv (scFv, V domains shown) VH: QVQLVQSGAEVKKPGASVKVSCKASGGTFSTHDINWVRQAPGQGLEWMGVINPSGGSAIYAQKFQGRVTMTRDTSTSTVYMELSSLRSEDTAVYYCARDRGYSYGYFDYWGQGTLVTVSS VL: DIQMTQSPSSLSASVGDRVTITCRASQDISRYLAWYQQKPGKAPKLLIYDASNLETGVPSRFSGSGSGTDFTLTISSLQPEDFATYYCQQANSFPRTFGQGTKVEIK |
| – | ≥ 3 fold | G10(4E12) scFv (scFv, V domains shown) VH: QVQLVQSGAEVKKPGASVKVSCKASGYTFTGYYMHWVRQAPGQGLEWMGMIGPSDGSTSYAQRFQGRVTMTRDTSTSTVYMELSSLRSEDTAVYYCAREEDGMDVWGQGTTVTVSS VL: DIQMTQSPSSLSASVGDRVTITCRASQGISTYLAWYQQKPGKAPKLLIYDASSLQSGVPSRFSGSGSGTDFTLTISSLQPEDFATYYCQQYYSYPWTFGQGTRLEIK |
| ≥ 3 fold | – | G8(5F02) scFv (scFv, V domains shown) VH: QVQLVQSGAEVKKPGASVKVSCKASGYTFTGYYIHWVRQAPGQGLEWMGVINPSGGSTTYAQKLQGRVTMTRDTSTSTVYMELSSLRSEDTAVYYCARDRDSSWTYYYYGMDVWGQGTTVTVSS VL: EIVMTQSPATLSVSPGERATLSCRASQSVGNSLAWYQQKPGQAPRLLIYGASTRATGIPARFSGSGSGTEFTLTISSLQSEDFAVYYCQQYGSSPYTFGQGTKVEIK |
| – | ≥ 3 fold | G10(1H01) scFv (scFv, V domains shown) VH: QVQLVQSGAEVKKPGASVKVSCKASGYTFTGYYMHWVRQAPGQGLEWMGMIGPSDGSTSYAQKFQGRVTMTRDTSTSTVYMELSSLRSEDTAVYYCARGVGNLDYWGQGTLVTVSS VL: DIQMTQSPSSLSASVGDRVTITCRASQSISNYLNWYQQKPGKAPKLLIYAASSLQSGVPSRFSGSGSGTDFTLTISSLQPEDFATYYCHQTYSTPLTFGQGTKVEIK |
| – | ≥ 3 fold | G10(1F06) scFv (scFv, V domains shown) VH: QVQLVQSGAEVKKPGASVKVSCKASGYTFIGYYMHWVRQAPGQGLEWMGMIGPSDGSTSYAQKFQGRVTMTRDTSTSTVYMELSSLRSEDTAVYYCARDSSGLDPWGQGTLVTVSS VL: DIQMTQSPSSLSASVGDRVTITCRASQSISNYLNWYQQKPGKAPKLLIYKASSLESGVPSRFSGSGSGTDFTLTISSLQPEDFATYYCQQSYIIPYTFGQGTKLEIK |
| – | ≥ 3 fold | G10(1H08) scFv (scFv, V domains shown) VH: QVQLVQSGAEVKKPGASVKVSCKASGVTFSTSAISWVRQAPGQGLEWMGWISPYNGNTDYAQMLQGRVTMTRDTSTSTVYMELSSLRSEDTAVYYCARDAHQYYDFWSGYYSGTYYYGMDVWGQGTTVTVSS VL: DIQMTQSPSSLSASVGDRVTITCRASQGISNYLAWYQQKPGKAPKLLIYSASNLQSGVPSRFSGSGSGTDFTLTISSLQPEDFATYYCQQAYSFPWTFGQGTKVEIK |
| – | ≥ 3 fold | G10(2C04) scFv (scFv, V domains shown) VH: QVQLVQSGAEVKKPGASVKVSCKASGGTFSNSIINWVRQAPGQGLEWMGWMNPNSGNTNYAQKFQGRVTMTRDTSTSTVYMELSSLRSEDTAVYYCAREQWPSYWYFDLWGRGTLVTVSS VL: not shown |
| – | ≥ 3 fold | G10(1B07) scFv (scFv, V domains shown) VH: QVQLVQSGAEVKKPGASVKVSCKASGYTFTSYYMHWVRQAPGQGLEWMGIIHPGGGTTSYAQKFQGRVTMTRDTSTSTVYMELSSLRSEDTAVYYCARDKVYGDGFDPWGQGTLVTVSS VL: DIQMTQSPSSLSASVGDRVTITCRASQSISRWLAWYQQKPGKAPKLLIFDASRLQSGVPSRFSGSGSGTDFTLTISSLQPEDFATYYCQQAEAFPYTFGQGTKVEIK |
| – | ≥ 3 fold | G10(1A07) scFv (scFv, V domains shown) VH: EVQLLESGGGLVKPGGSLRLSCAASGFTFSSYWMSWVRQAPGKGLEWVSGISARSGRTYYADSVKGRFTISRDDSKNTLYLQMNSLKTEDTAVYYCARDQDTIFGVVITWFDPWGQGTLVTVSS VL: DIQMTQSPSSLSASVGDRVTITCRASQGISNYLAWYQQKPGKAPKLLIYAASSLQGGVPSRFSGSGSGTDFTLTISSLQPEDFATYYCQQYFTTPYTFGQGTKLEIK |
| ≥ 3 fold | – | G8(5C03) scFv (scFv, V domains shown) VH: QVQLVQSGAEVKKPGASVKVSCKASGYTFTSYYMHWVRQAPGQGLEWMGWMNPNSGNTGYAQKFQGRVTMTRDTSTSTVYMELSSLRSEDTAVYYCARGLLGFGEFLTYGMDVWGQGTLVTVSS VL: DIQMTQSPSSLSASVGDRVTITCRASQGISNWLAWYQQKPGKAPKLLIYAASTLQSGVPSRFSGSGSGTDFTLTISSLQPEDFATYYCQQTYSTPWTFGQGTKLEIK |
